Tests used:
[1] = target: T1, His-DAPLE-CT (aa 1650-2028) F1675A (human, UniProt Q9P219 1650-2028); assay: GST pulldown, purified proteins (FIG. 2C)
T1 construct: Recombinant, purified from E. coli; also called His-DAPLE-CT FA; DAPLE-CT FA; not shown: His tag and vector residues of pET28b
T1 sequence: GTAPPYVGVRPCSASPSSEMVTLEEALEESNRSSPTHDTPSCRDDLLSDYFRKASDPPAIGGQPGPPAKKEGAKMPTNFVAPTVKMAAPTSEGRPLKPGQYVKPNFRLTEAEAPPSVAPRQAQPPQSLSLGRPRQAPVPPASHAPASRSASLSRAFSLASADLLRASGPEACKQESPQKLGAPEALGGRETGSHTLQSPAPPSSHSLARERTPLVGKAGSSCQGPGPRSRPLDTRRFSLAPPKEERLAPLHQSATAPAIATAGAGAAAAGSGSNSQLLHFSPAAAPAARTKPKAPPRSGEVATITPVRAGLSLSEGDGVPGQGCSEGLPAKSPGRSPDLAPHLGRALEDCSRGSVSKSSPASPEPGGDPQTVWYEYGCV
From the text: (§1) FIGS. 2A-2N. DAPLE binds and activates Gαi3 in vitro and in vivo via its GBA motif. (A) Prediction of molecular contacts critical for the DAPLE-Gαi interaction. Homology-based model of DAPLE's GBA motif (Red) bound to Gαi3 (green=Switch II, blue=ras-like domain, yellow, all-helical domain) with an enlarged section depicting a putative hydrophobic contact between DAPLE's F1675 and Gαi3's W211/F215. (B) Mutation of residues in the SWII region of Gαi3 disrupts DAPLE binding. Binding of His-DAPLE-CT to GST-Gαi3 WT, W211A or F215A was analyzed exactly as described in FIG. 1D. (C) Mutation of DAPLE F1675 to A abrogates Gαi3 binding. Binding of His-DAPLE-CT WT or F1675A (FA) to GST-Gαi3 was analyzed exactly as described in FIG. 1D. […] Myc-DAPLE WT or F1675A (FA) was expressed in Cos7 and binding to GST-Gαi3 analyzed exactly as described in FIG. 1E. […] Immune complexes were analyzed for DAPLE (myc) and Gαi3 (FLAG) by immunoblotting (IB). was monitored as positive Gαi3-binding control. […] The steady-state GTPase activity of His-Gαi3 alone (black) or in the presence of 2 μM His-DAPLE-CT (blue) was determined by measuring the production of [³²P]Pi at different time points as described in “Methods”. […] GTPγ³⁵S binding to His-Gαi3 at 15 min was determined in the presence of increasing concentrations (0-2 μM) of His-DAPLE-CT WT (blue) or His-DAPLE-CT FA (red).

[2] = target: T2, myc-DAPLE full length F1675A (human, UniProt Q9P219 1-2028); assay: GST pulldown from Cos7 lysates (FIG. 2D)
T2 construct: Expressed in Cos7 cells; used as cell lysate; also called myc-DAPLE FA; DAPLE-FA; not shown: N-terminal myc tag of myc-pcDNA 3.1 (+)
From the text: as §1

B1: GST-Gαi3 preloaded with GDP (inactive) (other, rat, UniProt P08753 1-354, looked up)
chain: MGCTLSAEDKAAVERSKMIDRNLREDGEKAAKEVKLLLLGAGESGKSTIVKQMKIIHEDGYSEDECKQYKVVVYSNTIQSIIAIIRAMGRLKIDFGEAARADDARQLFVLAGSAEEGVMTSELAGVIKRLWRDGGVQACFSRSREYQLNDSASYYLNDLDRISQTNYIPTQQDVLRTRVKTTGIVETHFTFKELYFKMFDVGGQRSERKKWIHCFEGVTAIIFCVALSDYDLVLAEDEEMNRMHESMKLFDSICNNKWFTDTSIILFLNKKDLFEEKIKRSPLTICYPEYTGSNTYEEAAAYIQCQFEDLNRRKDTKEVYTHFTCATDTKNVQFVFDAVTDVIIKNNLKECGLY
notes: Immobilized on glutathione beads; Same polypeptide as m11, other nucleotide state; also called GST-Gαi3 WT; not shown: glutathione S-transferase tag of the pGEX-4T-1 vector
binding result [1]: no binding
binding result [2]: no binding

Source: US20160362464A1 (University of California, published 2016)
